Data on 2 molecules can be found in patent US20200283521A1.

Read-outs that look alike come from different tables or passages of the source. Some results are limits rather than exact numbers.

Test [1] addresses cynomolgus monkey C-KIT, full length, on CHO-K1 cells (cynomolgus monkey). In words: cell-based or functional assay.
The target of test [2] is human C-KIT, full length, on cells (human) (UniProt P10721). The test can be described thus: cell-based or functional assay.
For test [3], the target named is cynomolgus monkey C-KIT-Fc (cynomolgus monkey). In words: HTRF epitope competition in solution; unlabelled h37M IgG1-3M titrated against terbium-labelled h37M IgG1 on cyno C-KIT-Fc. In general terms: TR-FRET usually uses a lanthanide donor and a delayed reading to cut background.
The target is the same in test [4]. The test can be described thus: direct titration ELISA on coated C-KIT-Fc, IgG1 format.
Test [5] concerns the target cynomolgus monkey C-KIT, full length, on CHO-K1 cells (cynomolgus monkey). In words: flow cytometry, C-KIT-transfected CHO-K1 cells, IgG1 format. (A flow cytometer gives signals particle by particle.)
Test [6] addresses cynomolgus monkey C-KIT-Fc (cynomolgus monkey). The test can be described thus: direct titration ELISA on coated C-KIT-Fc, IgG1 format. This is another data set of the same source. (In general: An ELISA detects its analyte on a solid surface through an enzyme-linked reagent.)
The target is the same in test [7]. The test can be described thus: HTRF competition vs Tb-h37M IgG1.
Test [8] has the same target. The test can be described thus: HTRF competition vs Tb-h37M IgG1. This is another data set of the same source.
Test [9] has the same target. The test can be described thus: direct ELISA at 1 µg/ml.

B1: h37M-IgG1-3M (antibody, V domains shown)
VH: QVQLVQSGAEVKKPGASVKLSCKASGYTFTDYYINWVRQAPGKGLEWIARIYPGSGNTYYNEKFKGRATLTADKSTSTAYMQLSSLRSEDTAVYFCARGVYYFDYWGQGTTVTVSS
VL: DIVMTQSPSSLSASVGDRVTITCKASQNVRTNVAWYQQKPGKAPKALIYSASYRYSGVPDRFTGSGSGTDFTLTISSLQPEDFADYFCQQYNSYPRTFGGGTKVEIK
For the molecule B1, the Cyno C-KIT CHO FabZAP IC50 (pM) in test [1] is 7.82 pM. Moreover, in test [2], the Human C-KIT CHO FabZAP IC50 (pM) was determined as 5.7 pM, the TF-1 FabZAP IC50 (pM) turned out to be 12.8 pM and the TF-1 proliferation IC50 stood at 0.11 nM. This molecule showed an IC50 (read off the curve) in test [3] of 0.02 µg/mL.

B2: humanized h37M, human IgG1 (antibody, V domains shown)
VH: QVQLVQSGAEVKKPGASVKLSCKASGYTFTDYYINWVRQAPGKGLEWIARIYPGSGNTYYNEKFKGRATLTADKSTSTAYMQLSSLRSEDTAVYFCARGVYYFDYWGQGTTVTVSS
VL: DIVMTQSPSSLSASVGDRVTITCKASQNVRTNVAWYQQKPGKAPKALIYSASYRYSGVPDRFTGSGSGTDFTLTISSLQPEDFADYFCQQYNSYPRTFGGGTKVEIK
With B2, the concentration for a half-maximal effect (EC50 (read off the curve)) in [4] is 0.2 µg/mL; in test [5], 0.2 µg/mL; in test [6] it was 0.1 µg/mL. Moreover, the 50% inhibitory concentration (IC50) in test [7] was 0.036 µg/mL; in [8], 0.035 µg/mL. Besides, the OD450 nm in test [9] was more than 2 OD450 nm.

As usually defined, the EC50 (read off the curve) is the concentration at which the effect is half-maximal. The term IC50 denotes the concentration needed to halve the response being measured.
